Source: patent US20220002403A1 (Merck Sharp & Dohme, published 2022)

How the values were obtained:
[1] = biological target: T1, recombinant human ILT4 antigen chemically coupled to Luminex beads (ILT4/Fc) (human, UniProt Q8N423 22-460); assay: Luminex ligand blocking assay: bead-coupled ILT4 pre-incubated with antibody (0.5-9,000 ng/mL), then 50 nM biotinylated HLA-G/Fc
T1 construct: also called Luminex bead-coupled ILT4/Fc; not shown: Fc part

[2] = biological target: T2, human ILT4 expressed on CHO cells (CHO/ILT4 cell line) (human, UniProt Q8N423 22-597); assay: cell-based ligand blocking assay: CHO/ILT4 cells pre-incubated with antibody (1-20,000 ng/mL), then biotinylated HLA-G/Fc
T2 construct: also called CHO/ILT4+ cells; CHO-expressed ILT4

[3] = biological target: T3, human ILT3 (two variants) expressed on mouse 3A9 T cells (human, UniProt Q8NHJ6 22-448); assay: flow cytometry on 3A9 T cell transfectants (two ILT3 variants)
T3 construct: whole, on cells; Two variants were tested

[4] = biological target: T4, human ILT11 expressed on mouse 3A9 T cells (human, UniProt A6NI73 42-299); assay: flow cytometry on 3A9 T cell transfectants
T4 construct: whole, on cells

[5] = biological target: T5, human LILRA2 expressed on mouse 3A9 T cells (human, UniProt Q8N149 24-483); assay: flow cytometry on 3A9 T cell transfectants
T5 construct: whole, on cells

[6] = biological target: T6, human ILT5 expressed on mouse 3A9 T cells (human, UniProt O75022 24-631); assay: flow cytometry on 3A9 T cell transfectants
T6 construct: whole, on cells

[7] = biological target: T7, human LILRA1 expressed on mouse 3A9 T cells (human, UniProt O75019 17-489); assay: flow cytometry on 3A9 T cell transfectants
T7 construct: whole, on cells

[8] = biological target: T8, human LILRB5 expressed on mouse 3A9 T cells (human, UniProt O75023 24-590); assay: flow cytometry on 3A9 T cell transfectants
T8 construct: whole, on cells

[9] = biological target: T9, human ILT2 expressed on mouse 3A9 T cells (human, UniProt Q8NHL6 24-650); assay: flow cytometry on 3A9 T cell transfectants
T9 construct: whole, on cells

[10] = biological target: T10, human ILT7 expressed on mouse 3A9 T cells (human, UniProt P59901 24-499); assay: flow cytometry on 3A9 T cell transfectants
T10 construct: whole, on cells

[11] = biological target: T11, human ILT8 expressed on mouse 3A9 T cells (human, UniProt Q6PI73 24-481); assay: flow cytometry on 3A9 T cell transfectants
T11 construct: whole, on cells

[12] = biological target: T12, ILT4-His (recombinant extracellular domain of human ILT4 fused to a poly-Histidine tag) (human, UniProt Q8N423 22-460); assay: SPR; ratio of KD to that of 1E1(G4) (the reference itself)
T12 construct: also called polyhistidine-tagged human ILT4; recombinant histidine tagged, extracellular domain of ILT4; not shown: poly-histidine tag

[13] = biological target: T12, ILT4-His (recombinant extracellular …); assay: SPR (Biacore T200): mAb captured by human Fc capture on CM5 chip, ILT4-His titrated; 1:1 model; n=2

T2 sequence (Q8N423 other isoform, or with tags, fused parts or gaps): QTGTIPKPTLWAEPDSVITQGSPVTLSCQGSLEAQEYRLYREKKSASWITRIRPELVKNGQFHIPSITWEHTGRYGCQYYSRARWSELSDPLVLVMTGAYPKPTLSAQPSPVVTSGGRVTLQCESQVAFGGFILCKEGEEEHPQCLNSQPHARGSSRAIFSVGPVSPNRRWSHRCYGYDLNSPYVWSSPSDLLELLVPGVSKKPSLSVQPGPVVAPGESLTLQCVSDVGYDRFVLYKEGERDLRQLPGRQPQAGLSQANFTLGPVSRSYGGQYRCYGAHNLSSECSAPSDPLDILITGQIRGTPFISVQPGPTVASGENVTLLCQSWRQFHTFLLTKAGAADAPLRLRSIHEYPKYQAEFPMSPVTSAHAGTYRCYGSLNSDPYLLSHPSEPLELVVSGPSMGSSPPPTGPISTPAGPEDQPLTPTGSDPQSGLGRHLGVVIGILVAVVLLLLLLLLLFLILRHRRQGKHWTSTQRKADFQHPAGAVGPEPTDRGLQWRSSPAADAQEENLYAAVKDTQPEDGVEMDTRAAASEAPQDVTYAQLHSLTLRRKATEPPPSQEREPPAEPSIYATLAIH
T1 sequence (Q8N423 other isoform, or with tags, fused parts or gaps): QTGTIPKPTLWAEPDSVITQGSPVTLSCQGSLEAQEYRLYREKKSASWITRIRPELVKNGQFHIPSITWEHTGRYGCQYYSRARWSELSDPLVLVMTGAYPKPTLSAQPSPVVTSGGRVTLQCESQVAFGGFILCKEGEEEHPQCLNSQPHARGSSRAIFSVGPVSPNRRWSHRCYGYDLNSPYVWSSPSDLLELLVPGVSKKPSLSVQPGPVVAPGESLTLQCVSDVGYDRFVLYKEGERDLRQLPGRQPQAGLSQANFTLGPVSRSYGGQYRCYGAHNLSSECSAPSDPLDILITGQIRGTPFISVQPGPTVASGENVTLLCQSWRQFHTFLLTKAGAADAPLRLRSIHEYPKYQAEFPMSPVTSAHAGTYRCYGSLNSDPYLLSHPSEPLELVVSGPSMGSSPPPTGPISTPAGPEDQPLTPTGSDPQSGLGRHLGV
T7 sequence (O75019 17-489): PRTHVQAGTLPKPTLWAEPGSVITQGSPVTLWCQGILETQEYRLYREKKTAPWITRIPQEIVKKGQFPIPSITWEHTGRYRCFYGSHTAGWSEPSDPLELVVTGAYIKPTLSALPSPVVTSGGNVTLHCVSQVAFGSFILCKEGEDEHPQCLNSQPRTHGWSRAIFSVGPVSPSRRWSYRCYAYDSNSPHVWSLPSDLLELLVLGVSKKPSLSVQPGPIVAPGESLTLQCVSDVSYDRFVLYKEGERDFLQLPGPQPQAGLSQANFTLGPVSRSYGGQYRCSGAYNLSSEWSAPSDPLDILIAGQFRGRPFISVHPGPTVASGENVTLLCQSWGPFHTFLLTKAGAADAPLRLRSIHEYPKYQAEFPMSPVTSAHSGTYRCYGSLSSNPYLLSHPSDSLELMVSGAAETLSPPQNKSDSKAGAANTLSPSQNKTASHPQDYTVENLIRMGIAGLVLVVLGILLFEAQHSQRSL
T5 sequence (Q8N149 24-483): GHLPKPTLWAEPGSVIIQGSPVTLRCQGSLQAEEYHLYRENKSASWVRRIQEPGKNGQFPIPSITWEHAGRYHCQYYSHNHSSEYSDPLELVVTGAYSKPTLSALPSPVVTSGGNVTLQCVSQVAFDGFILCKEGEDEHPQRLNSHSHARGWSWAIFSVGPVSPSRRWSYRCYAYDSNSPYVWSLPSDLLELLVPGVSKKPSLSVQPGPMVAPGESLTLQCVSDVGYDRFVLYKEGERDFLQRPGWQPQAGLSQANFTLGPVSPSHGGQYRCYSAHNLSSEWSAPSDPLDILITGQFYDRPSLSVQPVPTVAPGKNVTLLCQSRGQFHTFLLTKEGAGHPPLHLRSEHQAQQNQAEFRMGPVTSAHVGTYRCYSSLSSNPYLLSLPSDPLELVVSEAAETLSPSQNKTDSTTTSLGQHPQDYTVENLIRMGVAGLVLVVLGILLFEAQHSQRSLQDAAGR
T9 sequence (Q8NHL6 24-650): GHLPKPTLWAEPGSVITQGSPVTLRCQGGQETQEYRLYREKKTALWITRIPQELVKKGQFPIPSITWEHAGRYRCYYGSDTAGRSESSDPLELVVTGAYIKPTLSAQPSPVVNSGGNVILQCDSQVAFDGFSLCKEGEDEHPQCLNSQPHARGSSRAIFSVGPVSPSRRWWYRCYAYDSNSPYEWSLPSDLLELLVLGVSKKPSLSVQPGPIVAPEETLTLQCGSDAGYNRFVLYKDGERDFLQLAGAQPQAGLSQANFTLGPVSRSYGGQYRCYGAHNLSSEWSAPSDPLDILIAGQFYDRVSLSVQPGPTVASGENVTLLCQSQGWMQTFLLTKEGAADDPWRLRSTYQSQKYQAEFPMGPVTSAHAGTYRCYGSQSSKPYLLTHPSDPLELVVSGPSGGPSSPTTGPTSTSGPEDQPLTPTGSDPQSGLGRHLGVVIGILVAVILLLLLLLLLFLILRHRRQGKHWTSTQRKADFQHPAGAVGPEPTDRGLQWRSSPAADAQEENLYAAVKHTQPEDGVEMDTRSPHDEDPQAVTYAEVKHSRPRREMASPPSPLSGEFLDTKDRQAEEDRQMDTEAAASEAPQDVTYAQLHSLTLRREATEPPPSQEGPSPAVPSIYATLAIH
T4 sequence (A6NI73 42-299): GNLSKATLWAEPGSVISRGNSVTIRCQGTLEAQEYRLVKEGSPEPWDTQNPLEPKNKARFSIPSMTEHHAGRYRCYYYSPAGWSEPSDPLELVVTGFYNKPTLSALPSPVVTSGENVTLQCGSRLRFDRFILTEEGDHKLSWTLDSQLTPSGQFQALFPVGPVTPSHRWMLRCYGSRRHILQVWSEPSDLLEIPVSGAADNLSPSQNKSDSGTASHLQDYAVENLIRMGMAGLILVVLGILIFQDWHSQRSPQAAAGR
T11 sequence (Q6PI73 24-481): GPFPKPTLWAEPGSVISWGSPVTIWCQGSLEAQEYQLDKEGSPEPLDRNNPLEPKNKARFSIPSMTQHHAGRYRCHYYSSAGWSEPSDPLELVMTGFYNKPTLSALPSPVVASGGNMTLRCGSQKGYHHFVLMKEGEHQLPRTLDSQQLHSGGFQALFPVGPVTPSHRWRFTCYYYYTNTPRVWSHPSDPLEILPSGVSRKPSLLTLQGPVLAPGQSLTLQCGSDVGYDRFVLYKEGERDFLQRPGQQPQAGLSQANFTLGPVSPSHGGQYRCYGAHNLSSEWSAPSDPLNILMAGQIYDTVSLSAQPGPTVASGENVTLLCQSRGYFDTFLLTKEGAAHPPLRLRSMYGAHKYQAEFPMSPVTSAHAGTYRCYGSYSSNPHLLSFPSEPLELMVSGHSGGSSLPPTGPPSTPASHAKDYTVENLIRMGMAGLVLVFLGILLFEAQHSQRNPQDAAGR
T10 sequence (P59901 24-499): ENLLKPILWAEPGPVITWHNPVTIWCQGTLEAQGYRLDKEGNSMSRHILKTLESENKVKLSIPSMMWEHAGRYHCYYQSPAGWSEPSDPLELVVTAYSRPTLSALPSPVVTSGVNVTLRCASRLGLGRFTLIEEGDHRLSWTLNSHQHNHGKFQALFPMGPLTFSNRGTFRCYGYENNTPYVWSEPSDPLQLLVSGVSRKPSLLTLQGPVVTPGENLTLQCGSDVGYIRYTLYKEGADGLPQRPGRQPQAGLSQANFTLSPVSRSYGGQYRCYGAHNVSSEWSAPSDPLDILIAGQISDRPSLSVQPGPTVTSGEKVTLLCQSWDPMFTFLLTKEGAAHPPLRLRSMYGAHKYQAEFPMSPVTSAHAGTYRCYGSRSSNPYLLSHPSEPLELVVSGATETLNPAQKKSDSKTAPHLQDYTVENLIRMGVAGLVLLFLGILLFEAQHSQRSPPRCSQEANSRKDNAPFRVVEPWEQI
T8 sequence (O75023 24-590): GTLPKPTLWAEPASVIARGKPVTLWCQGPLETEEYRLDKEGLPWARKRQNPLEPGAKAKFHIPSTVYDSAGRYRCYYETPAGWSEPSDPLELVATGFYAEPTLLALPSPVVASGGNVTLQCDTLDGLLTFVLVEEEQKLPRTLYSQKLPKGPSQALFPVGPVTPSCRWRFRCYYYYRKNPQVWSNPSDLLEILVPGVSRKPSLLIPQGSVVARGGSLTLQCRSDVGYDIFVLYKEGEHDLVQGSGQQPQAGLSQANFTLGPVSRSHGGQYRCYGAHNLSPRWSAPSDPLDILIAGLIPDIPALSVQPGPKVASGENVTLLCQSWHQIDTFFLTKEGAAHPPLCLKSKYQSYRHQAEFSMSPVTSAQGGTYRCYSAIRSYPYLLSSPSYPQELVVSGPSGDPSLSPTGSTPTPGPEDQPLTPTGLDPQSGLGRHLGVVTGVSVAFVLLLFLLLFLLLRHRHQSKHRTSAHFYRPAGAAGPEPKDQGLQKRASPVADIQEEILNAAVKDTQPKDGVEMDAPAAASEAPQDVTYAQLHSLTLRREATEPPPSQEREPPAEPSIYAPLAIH

B1: 1E1 (hIgG4 variant) (antibody)
heavy: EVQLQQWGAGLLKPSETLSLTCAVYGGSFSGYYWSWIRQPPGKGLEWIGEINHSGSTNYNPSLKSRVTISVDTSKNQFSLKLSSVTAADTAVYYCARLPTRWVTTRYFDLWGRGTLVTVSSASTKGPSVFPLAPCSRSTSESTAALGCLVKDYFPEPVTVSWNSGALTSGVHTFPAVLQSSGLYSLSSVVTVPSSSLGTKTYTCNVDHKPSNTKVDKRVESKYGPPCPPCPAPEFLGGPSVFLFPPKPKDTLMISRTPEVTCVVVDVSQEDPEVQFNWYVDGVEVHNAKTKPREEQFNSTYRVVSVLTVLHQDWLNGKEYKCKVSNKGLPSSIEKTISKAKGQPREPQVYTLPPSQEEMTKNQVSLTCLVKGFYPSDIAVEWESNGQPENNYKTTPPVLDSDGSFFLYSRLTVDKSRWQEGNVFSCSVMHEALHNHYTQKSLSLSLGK
light: ESVLTQPPSVSGAPGQRVTISCTGSSSNIGAGYDVHWYQQLPGTAPKLLIYGNSNRPSGVPDRFSVSKSGASASLAITGLQAEDEADYYCQSFDNSLSAYVFGGGTQLTVLGQPKAAPSVTLFPPSSEELQANKATLVCLISDFYPGAVTVAWKADSSPVKAGVETTTPSKQSNNKYAASSYLSLTPEQWKSHRSYSCQVTHEGSTVEKTVAPTECS
notes: The chain assignment is uncertain
IC50 [1]: 0.0192 µg/mL
IC50 [2]: 0.0984 µg/mL

B2: 2A6 (antibody, V domains shown)
VH: EVQLVQSGAEVKKPGSSVKVSCKASGGTFSSYAISWVRQAPGQGLEWMGGIIPIFGTANYAQKFQGRVTITADESTSTAYMELSSLRSEDTAVYYCARYFDSSGWYKGGAFDIWGQGTMVTVSS
VL: QSVLTQPSSLSASPGASASLTCTLRSGINVDTYRIHWYQQKPGSPPQYLLRYKSDSDKHQGSGVPSRFSGSKDPSANAGILLISGLQSEDEADYYCAIWYSSTWVFGGGTQLTVLG
notes: hIgG4 variant in the Luminex and cell assays; also called 2A6 (hIgG4 variant)
IC50 [1]: 0.0177 µg/mL
IC50 [2]: 0.233 µg/mL

B3: 2C1 (antibody, V domains shown)
VH: EVQLVQSGAEVKKPGASVKVSCKVSGYTLTELSMHWVRQAPGKGLEWMGGFDPEDGETIYAQKFQGRVTMTEDTSTDTAYMELSSLRSEDTAVYYCARAGPLYTIFGVVIIPDNWFDPWGQGTLVTVSS
VL: ESVLTQPPSVSGAPGQRVTISCTGSSSNIGAGYDVHWYQQLPGTAPKLLIYGNSNRPSGVPDRFSGSKSGTSASLAITGLQAEDEADYYCQSYDSSLSGSGVVFGGGTQLIILG
notes: hIgG4 variant in the Luminex and cell assays; also called 2C1 (hIgG4 variant)
IC50 [1]: 0.0102 µg/mL
IC50 [2]: 0.0561 µg/mL

B4: 3G7 (antibody, V domains shown)
VH: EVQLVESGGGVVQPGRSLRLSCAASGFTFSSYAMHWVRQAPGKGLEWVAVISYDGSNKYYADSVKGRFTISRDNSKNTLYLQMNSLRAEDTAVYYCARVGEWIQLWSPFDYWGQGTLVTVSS
VL: DIQMTQSPSSVSASVGDRVTITCRASQGISSWLAWYQQKPGKAPKFLIYAASSLQSGVPSKFSGSGSGTDFTLTISSLQPEDFATYYCQQYNSYPPTFGGGTKVEIKR
notes: hIgG4 variant in the Luminex and cell assays; also called 3G7 (hIgG4 variant)
IC50 [1]: 0.04 µg/mL
IC50 [2]: 0.374 µg/mL

B5: 1E1(G4) (antibody, human IgG4 S228P, lambda, V domains shown)
VH: EVQLQQWGAGLLKPSETLSLTCAVYGGSFSGYYWSWIRQPPGKGLEWIGEINHAGSTNYNPSLKSRVTISVDTSKNQFSLKLSSVTAADTAVYYCARLPTRWVTTRYFDLWGRGTLVTVSS
VL: ESVLTQPPSVSGAPGQRVTISCTGSSSNIGAGYDVHWYQQLPGTAPKLLIYGDSNRPSGVPDRFSVSKSGASASLAITGLQAEDEADYYCQSFDNSLSAYVFGGGTQLTVLG
notes: also called 1E1 VH Q1E, S54A/VL Q1E, N53D IgG4 S228P/Lambda
binding result [3]: no binding (tested: 10 ug/mL)
binding result [4]: no binding (tested: 10 ug/mL)
binding result [5]: no binding (tested: 10 ug/mL)
binding result [6]: no binding (tested: 10 ug/mL)
binding result [7]: no binding (tested: 10 ug/mL)
binding result [8]: no binding (tested: 10 ug/mL)
binding result [9]: no binding (tested: 10 ug/mL)
binding result [10]: no binding (tested: 10 ug/mL)
binding result [11]: no binding (tested: 10 ug/mL)
KD Ratio [12]: 1
Kd [13]: 17 nM
koff [13]: 0.009 s⁻¹
